Results from patent US20100087631A1 (Eli Lilly, published 2010).
One block for each molecule: values may come before it.

What was measured:
human GDF-8 (human) [1] = target: human GDF-8 (human) (UniProt O14793); test: ELISA, human GDF-8 coated on plate, isotype control at 1 ug/ml (column headed 510C2 GDF-8)
[2] = target: recombinant human HGF (R&D Systems, catalog #294-HG/CF) (human) (UniProt P14210); test: ELISA, human HGF coated on plate, isotype control at 1 ug/ml (column headed C12 HGF)
[3] = target: recombinant human GDF-11 (Peprotech, Inc., Cat. #120-11) (human) (UniProt O95390); test: ELISA, human GDF-11 coated on plate, isotype control at 1 ug/ml (column headed 510C2 GDF-11)
[4] = target: recombinant human GDF-11 (Peprotech, Inc., Cat. #120-11) (human) (UniProt O95390); test: ELISA, human GDF-11 coated on plate, isotype control at 1 ug/ml (column headed C12 GDF-11)
[5] = target: recombinant human HGF (R&D Systems, catalog #294-HG/CF) (human) (UniProt P14210); test: ELISA, human HGF coated on plate, isotype control at 1 ug/ml (column headed 510C2 HGF)
human GDF-8 (human) [6] = target: human GDF-8 (human) (UniProt O14793); test: ELISA, human GDF-8 coated on plate, isotype control at 1 ug/ml (column headed C12 GDF-8)
[7] = target: T1, recombinant mouse myostatin (R&D systems, Cat. #788-G8/CF) (mouse, UniProt O08689 268-376); test: ELISA, GDF-8 coated on plate (GDF-8 down), Fab titrated, anti-kappa AP detection
T1 construct: Bought protein; also called GDF-8; myostatin (R&D Systems 788-G8)
T1 sequence: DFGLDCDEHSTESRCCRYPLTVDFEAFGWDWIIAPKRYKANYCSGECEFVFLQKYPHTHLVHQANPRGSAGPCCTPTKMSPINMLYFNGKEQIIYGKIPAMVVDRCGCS

recombinant human HGF (R&D Systems, catalog #294-HG/CF) (human), sequence (P14210 32-728 limits assumed): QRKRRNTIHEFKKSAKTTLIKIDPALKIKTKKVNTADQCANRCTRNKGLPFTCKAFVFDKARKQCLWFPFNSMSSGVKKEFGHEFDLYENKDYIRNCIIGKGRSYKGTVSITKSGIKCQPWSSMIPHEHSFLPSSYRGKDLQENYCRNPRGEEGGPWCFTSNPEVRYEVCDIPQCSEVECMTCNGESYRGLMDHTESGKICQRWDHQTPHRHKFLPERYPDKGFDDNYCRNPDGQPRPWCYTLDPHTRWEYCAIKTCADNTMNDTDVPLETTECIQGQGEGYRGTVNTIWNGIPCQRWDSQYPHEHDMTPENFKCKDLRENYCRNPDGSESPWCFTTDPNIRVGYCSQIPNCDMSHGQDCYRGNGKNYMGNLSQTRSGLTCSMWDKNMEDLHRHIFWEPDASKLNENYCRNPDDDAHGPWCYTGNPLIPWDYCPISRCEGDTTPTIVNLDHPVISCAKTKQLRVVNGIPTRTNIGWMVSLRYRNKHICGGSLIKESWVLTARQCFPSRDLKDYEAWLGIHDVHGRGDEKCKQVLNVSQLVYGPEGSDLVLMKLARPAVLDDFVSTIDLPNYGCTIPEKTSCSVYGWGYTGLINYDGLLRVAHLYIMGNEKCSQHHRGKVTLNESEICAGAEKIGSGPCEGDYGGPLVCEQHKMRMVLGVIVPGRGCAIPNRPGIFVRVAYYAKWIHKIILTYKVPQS
recombinant human GDF-11 (Peprotech, Inc., Cat. #120-11) (human), sequence (O95390 299-407 limits assumed): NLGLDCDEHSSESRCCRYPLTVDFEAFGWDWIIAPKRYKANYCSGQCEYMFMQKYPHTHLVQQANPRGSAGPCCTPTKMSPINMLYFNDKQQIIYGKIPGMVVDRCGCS

average absorbance at 490 nm (human GDF-8 (human) [1]): 0.0907 OD 490 nm | average absorbance at 490 nm [2]: 0.049 OD 490 nm | average absorbance at 490 nm [3]: 0.0919 OD 490 nm | average absorbance at 490 nm [4]: 0.0487 OD 490 nm | average absorbance at 490 nm [5]: 0.0804 OD 490 nm | average absorbance at 490 nm (human GDF-8 (human) [6]): 0.0519 OD 490 nm
Molecule: isotype control antibody

IC50 [7]: 0.25 µg/mL
B1: C12 Fab (Fab, V domains shown)
VH: QLQLQESGPGLVKPSETLSLTCTVSGFSLRKVGSSVSWIRQPPGKGLEWIGHIYWDDDKRLNPSLRNRVTISVDTSKNQFSLKLSSVTAADTAVYYCARRAITTVIGGGTFDLWGQGTLVTVSS
VL: DIQMTQSPSSLSASVGDRVTITCSASSSISYMHWYQQKPGKAPKLLIYDTSKLARGVPSRFSGSGSGTDFTLTISSLQPEDFATYYCQQWYLNPLTFGGGTKVEIKR
